From patent US20100215655A1 (CHENGDU KANGHONG BIOTECHNOLOGIES, published 2010)

Experiments:
[1] = target: T1, recombinant VEGF (vascular endothelial cell growth factor) (UniProt P15692-4 27-191, limits assumed); assay: ELISA, VEGF coated on plate, anti-human Ig-HRP detection
T1 construct: also called recombinant VEGF proteins (Chemicom)
Experimental: Affinities of the chimeric proteins to VEGF were determined by the VEGF binding assay in the present invention. Firstly, recombinant VEGF proteins (Chemicom) were coated in a 96-well ELISA plate, and non-specific protein binding sites of the plate were then blocked using 5% milk solution. Secondly, different concentrations of various chimeric proteins were added into each well, and incubated for 2 hours at 37° C. After washing, rabbit anti-human Ig-HRP (Sigma) was added into each well, and finally colorimetric enzyme substrates were added to the plate. The absorption OD readings were recorded with the use of an ELISA plate reader. A higher OD value indicated a stronger binding affinity of the chimeric proteins to VEGF.

[2] = target: T1, recombinant VEGF (vascular endothelial …); assay: cell-based or functional assay

T1 sequence (P15692 other isoform, or with tags, fused parts or gaps limits assumed): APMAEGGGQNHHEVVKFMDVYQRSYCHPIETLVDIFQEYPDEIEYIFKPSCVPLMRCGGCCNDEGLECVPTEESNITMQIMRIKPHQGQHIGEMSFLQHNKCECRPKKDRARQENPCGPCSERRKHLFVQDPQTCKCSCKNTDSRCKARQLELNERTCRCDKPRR

Binder | concentration at which binding was detectable [1] | IC50 of inhibition of VEGF-induced HUVEC cell growth [2]
FP6′ (FLTd2-KDRd3-FLTd4,5-Fc) (Fc fusion, human, not shown: a dimerising Fc or GST, domain: 5th Ig-like domain of FLT-1; Expressed in 293 cells; also called PF6′) PFVEMYSEIPEIIHMTEGRELVIPCRVTSPNITVTLKKFPLDTLIPDGKRIIWDSRKGFIISNATYKEIGLLTCEATVNGHLYKTNYLTHRQTVVLSPSHGIELSVGEKLVLNCTARTELNVGIDFNWEYPSSKHQHKKLVNRDLKTQSGSEMKKFLSTLTIDGVTRSDQGLYTCAASSGLMTKKNSTFVRVHEKFITVKHRKQQVLETVAGKRSYRLSMKVKAFPSPEVVWLKDGLPATEKSARYLTRGYSLIIKDVTEEDAGNYTILLSIKQSNVFKNLTATLIVNVKPQIYEKAVSSFPDPALYPLGSRQILTCTAYGIPQPTIKWFWHPCNHNHSEARCDFCSNNEESFILDADSNMGNRIESITQRMAIIEGKNKMASTLVVADSRISGIYICIASNKVGTVGRNISFYIT | 1 µg/mL | 5 to 8 ng/mL
FP5′ (FLTd2-KDRd3,4,5-Fc) (Fc fusion, human, not shown: a dimerising Fc or GST, domain: 5th Ig-like domain of KDR; Expressed in 293 cells) PFVEMYSEIPEIIHMTEGRELVIPCRVTSPNITVTLKKFPLDTLIPDGKRIIWDSRKGFIISNATYKEIGLLTCEATVNGHLYKTNYLTHRQTVVLSPSHGIELSVGEKLVLNCTARTELNVGIDFNWEYPSSKHQHKKLVNRDLKTQSGSEMKKFLSTLTIDGVTRSDQGLYTCAASSGLMTKKNSTFVRVHEKFVAFGSGMESLVEATVGERVRIPAKYLGYPPPEIKWYKNGIPLESNHTIKAGHVLTIMEVSERDTGNYTVILTNPIKSEKQSHVVSLVVYVPPQIGEKSLISPVDSYQYGTTQTLTCTVYAIPPPHHIHWYWQLEEECANEPSQAVSVTNPYPCEEWRSVEDFQGGNKIEVNKNQFALIEGKNKTVSTLVIQAANVSALYKCEAVNKVGRGERVISFHVT | 1 µg/mL | 5 to 8 ng/mL
FP2′ (KDRd1-FLTd2-KDRd3-Fc) (Fc fusion, not shown: a dimerising Fc or GST, Expressed in 293 cells) PRLSIQKDILTIKANTTLQITCRGQRDLDWLWPNNQSGSEQRVEVTECSDGLFCKTLTIPKVIGNDTGAYKCFYRETDLASVIYVYPFVEMYSEIPEIIHMTEGRELVIPCRVTSPNITVTLKKFPLDTLIPDGKRIIWDSRKGFIISNATYKEIGLLTCEATVNGHLYKTNYLTHRQTVVLSPSHGIELSVGEKLVLNCTARTELNVGIDFNWEYPSSKHQHKKLVNRDLKTQSGSEMKKFLSTLTIDGVTRSDQGLYTCAASSGLMTKKNSTFVRVHEK | 1 µg/mL | 5 to 8 ng/mL
FP4′ (FLTd2-KDRd3-FLTd4-Fc) (Fc fusion, not shown: a dimerising Fc or GST, Expressed in 293 cells) PFVEMYSEIPEIIHMTEGRELVIPCRVTSPNITVTLKKFPLDTLIPDGKRIIWDSRKGFIISNATYKEIGLLTCEATVNGHLYKTNYLTHRQTVVLSPSHGIELSVGEKLVLNCTARTELNVGIDFNWEYPSSKHQHKKLVNRDLKTQSGSEMKKFLSTLTIDGVTRSDQGLYTCAASSGLMTKKNSTFVRVHEKFITVKHRKQQVLETVAGKRSYRLSMKVKAFPSPEVVWLKDGLPATEKSARYLTRGYSLIIKDVTEEDAGNYTILLSIKQSNVFKNLTATLIVNVKP | 1 µg/mL | 5 to 8 ng/mL
FP1′ (FLTd2-KDRd3-Fc), chimeric protein of the prior art (Fc fusion, not shown: a dimerising Fc or GST) PFVEMYSEIPEIIHMTEGRELVIPCRVTSPNITVTLKKFPLDTLIPDGKRIIWDSRKGFIISNATYKEIGLLTCEATVNGHLYKTNYLTHRQTVVLSPSHGIELSVGEKLVLNCTARTELNVGIDFNWEYPSSKHQHKKLVNRDLKTQSGSEMKKFLSTLTIDGVTRSDQGLYTCAASSGLMTKKNSTFVRVHEK | – | ~12 ng/mL
